Biological target: T1, yeast eIF3j (Hcr1) (yeast, UniProt Q05775 1-265)
T1 construct: source: E. coli Rosetta2 (DE3), pGEX-6P-1, purified (GSTrap, PreScission cleavage, second glutathione step, Superdex S-75)
Assay: ITC; VP-ITC; 20 µL aliquots of 229 µM eIF3b-RRM^76–170 injected into the cell with 10 µM Hcr1; 200 mM NaCl, 10 mM Hepes pH 7.5, 5% glycerol; single binding site model
Details: both partners purified

T1 sequence (Q05775 whole entry): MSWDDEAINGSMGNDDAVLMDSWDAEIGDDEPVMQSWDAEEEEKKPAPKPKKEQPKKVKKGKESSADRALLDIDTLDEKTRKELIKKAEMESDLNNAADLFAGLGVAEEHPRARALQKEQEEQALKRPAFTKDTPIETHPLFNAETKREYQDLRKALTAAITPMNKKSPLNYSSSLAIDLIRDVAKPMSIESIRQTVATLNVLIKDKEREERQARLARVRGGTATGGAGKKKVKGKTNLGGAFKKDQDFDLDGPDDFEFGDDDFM

B1: yeast eIF3b-RRM, residues 76-170 (domain or fragment, UniProt P06103 76-170, looked up)
chain: DQYIVVNGAPVIPSAKVPVLKKALTSLFSKAGKVVNMEFPIDEATGKTKGFLFVECGSMNDAKKIIKSFHGKRLDLKHRLFLYTMKDVERYNSDD
notes: also called eIF3b-RRM^76–170; RRM^76–170; source: E. coli Rosetta2 (DE3), pGEX-6P-1, purified (GSTrap, PreScission cleavage, Superdex S-75)
What does the source list for B1?
Kd: 7.5 ± 0.5 µM; dH: -9.28 ± 0.217 kcal/mol; stoichiometry N: ~1
